Experimental data: US20150037339A1 (Regeneron, published 2015)

How the values were obtained:
[1] = molecular target: T1, Activin A (human, UniProt P08476 311-426); assay: cell-based or functional assay
T1 sequence: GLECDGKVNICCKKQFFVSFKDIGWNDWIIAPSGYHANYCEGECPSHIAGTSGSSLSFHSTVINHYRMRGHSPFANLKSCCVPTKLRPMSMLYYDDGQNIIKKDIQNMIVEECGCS

[2] = molecular target: T2, Activin B (human, UniProt P09529 293-407); assay: cell-based or functional assay
T2 chain: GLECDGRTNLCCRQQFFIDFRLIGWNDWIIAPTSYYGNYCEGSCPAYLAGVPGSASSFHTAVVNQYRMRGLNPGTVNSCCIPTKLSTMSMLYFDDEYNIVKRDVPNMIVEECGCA

[3] = molecular target: T3, Activin AB (human, UniProt P08476 311-426; P09529 293-407); assay: cell-based or functional assay
T3 chain 1: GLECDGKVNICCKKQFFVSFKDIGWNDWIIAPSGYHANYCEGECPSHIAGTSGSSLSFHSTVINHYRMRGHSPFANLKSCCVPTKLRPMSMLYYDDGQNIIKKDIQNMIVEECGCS
T3 chain 2: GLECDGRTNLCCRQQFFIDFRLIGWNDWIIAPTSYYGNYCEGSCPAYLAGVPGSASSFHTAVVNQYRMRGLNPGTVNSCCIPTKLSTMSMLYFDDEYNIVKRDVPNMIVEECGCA

[4] = molecular target: T4, Activin AC (human, UniProt P55103 237-352); assay: cell-based or functional assay
T4 sequence 1: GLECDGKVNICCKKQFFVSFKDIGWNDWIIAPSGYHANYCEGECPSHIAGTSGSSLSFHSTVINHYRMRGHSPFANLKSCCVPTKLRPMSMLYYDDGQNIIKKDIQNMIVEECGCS
T4 sequence 2: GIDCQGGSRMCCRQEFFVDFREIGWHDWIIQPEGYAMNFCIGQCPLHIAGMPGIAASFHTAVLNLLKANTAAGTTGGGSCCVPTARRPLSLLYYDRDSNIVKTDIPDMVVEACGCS

[5] = molecular target: T3, Activin AB; assay: SPR (Biacore), mAb captured on anti-Fc, Activin AB injected, 25 C
In short: (§1)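 Antibodies were captured and activin variants injected, with association monitored for 240 s and dissociation for 600 s. Runs were at 25 °C or 37 °C as indicated per assay. KD was calculated as kd/ka and t1/2 as ln2/(60·kd) in min, from the fitted rate constants.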

[6] = molecular target: T3, Activin AB; assay: SPR (Biacore), mAb captured on anti-Fc, Activin AB injected, 37 C
In short: as §1

[7] = molecular target: T4, Activin AC; assay: SPR (Biacore), mAb captured on anti-Fc, Activin AC injected, 25 C
In short: as §1

[8] = molecular target: T4, Activin AC; assay: SPR (Biacore), mAb captured on anti-Fc, Activin AC injected, 37 C
In short: as §1

[9] = molecular target: T1, Activin A; assay: SPR (Biacore 4000), captured on anti-human Fc, 200 nM ligand injected, 37 C
Procedure: (§2) For the binding experiment, a Biacore 4000 instrument was used. […] All Biacore binding studies were performed in HBS-T running buffer (0.01 M HEPES pH 7.4, 0.5 M NaCl, 3 mM EDTA, 0.5 mg/ml bovine serum albumin, 0.05% v/v Surfactant P20). […] All binding measurements were performed at 37° C. […] Over the captured antibody surface was injected the TGF-beta family ligands through concentrations ranging from 3.1 nM to 200 nM.

[10] = molecular target: T2, Activin B; assay: as above
Procedure: as §2

[11] = molecular target: T3, Activin AB; assay: as above
Procedure: as §2

[12] = molecular target: T4, Activin AC; assay: as above
Procedure: as §2

[13] = molecular target: T5, hBMP2 (human, UniProt P12643 283-396); assay: as above
T5 construct: Bought protein; also called BPM2
Procedure: as §2

[14] = molecular target: T6, hBMP4 (human, UniProt P12644 293-408); assay: as above
T6 construct: Bought protein
T6 sequence (looked up): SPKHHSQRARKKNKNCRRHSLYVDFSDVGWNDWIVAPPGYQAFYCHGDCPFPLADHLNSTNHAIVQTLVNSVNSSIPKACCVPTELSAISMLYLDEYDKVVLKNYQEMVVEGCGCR
Procedure: as §2

[15] = molecular target: T7, hBMP6 (human, UniProt P22004 382-513, limits assumed); assay: as above
T7 construct: Bought protein
T7 sequence (looked up): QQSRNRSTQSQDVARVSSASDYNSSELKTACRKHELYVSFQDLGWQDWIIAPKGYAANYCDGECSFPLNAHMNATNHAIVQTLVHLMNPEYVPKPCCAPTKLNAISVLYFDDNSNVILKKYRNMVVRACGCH
Procedure: as §2

[16] = molecular target: T8, hBMP9 (human, UniProt Q9UK05 320-429); assay: as above
T8 construct: Bought protein
T8 sequence (looked up): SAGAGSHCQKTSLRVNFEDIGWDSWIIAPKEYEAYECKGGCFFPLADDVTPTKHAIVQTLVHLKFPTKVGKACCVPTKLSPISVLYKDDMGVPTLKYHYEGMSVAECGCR
Procedure: as §2

[17] = molecular target: T9, hBMP10 (human, UniProt O95393 317-424); assay: as above
T9 construct: Bought protein
T9 sequence (looked up): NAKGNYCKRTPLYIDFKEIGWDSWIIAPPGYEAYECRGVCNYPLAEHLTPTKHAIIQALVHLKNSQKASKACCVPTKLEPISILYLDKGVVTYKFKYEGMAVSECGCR
Procedure: as §2

[18] = molecular target: T10, GDF8 (human, UniProt O14793 267-375); assay: as above
T10 construct: Bought (R&D Systems #788-G8); also called hGDF8; growth and differentiation factor-8
Procedure: as §2

[19] = molecular target: T11, GDF11 (human, UniProt O95390 299-407); assay: as above
T11 construct: Bought protein; also called hGDF11
Procedure: as §2

T11 sequence (O95390 299-407 limits assumed): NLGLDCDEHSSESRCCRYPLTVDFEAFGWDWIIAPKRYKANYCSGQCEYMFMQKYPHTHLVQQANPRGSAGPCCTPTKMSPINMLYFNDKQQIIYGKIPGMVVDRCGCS
T5 sequence (P12643 283-396 limits assumed): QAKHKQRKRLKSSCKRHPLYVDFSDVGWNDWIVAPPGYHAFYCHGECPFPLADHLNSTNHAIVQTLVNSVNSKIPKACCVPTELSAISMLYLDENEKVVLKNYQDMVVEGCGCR

B1: H4H10429P (antibody, human IgG4, V domains shown)
VH: QVQLVESGGGVVQPGRSLRLSCVASGFTVSSYGIHWVRQAPGKGLEWVSVIWYDGRNKDYADSVKGRFTISRDNSKNTVYLEMKGLRAEDTALYYCARDKTGDFDSWGQGTLVTVSS
VL: DIQMTQSPSSLSASVGDRVTITCRASQNINSFLSWYQQKPGKAPKFLIYDASSIQSGAPSRFSGSGSGTDFTLTISSLQPEDFATYYCQQSYSSPFTFGQGTKLEIK
IC50 [M], inhibition of 100 pM Activin A in A204/CAGAx12-Luc Smad2/3-luciferase bioassay [1]: 1.6e-10 M
IC50 [M], inhibition of 50 pM Activin B in A204/CAGAx12-Luc Smad2/3-luciferase bioassay [2]: 7.9e-08 M
IC50 [M], inhibition of 30 pM Activin AB in A204/CAGAx12-Luc Smad2/3-luciferase bioassay [3]: 2.9e-10 M
IC50 [M], inhibition of 4 nM Activin AC in A204/CAGAx12-Luc Smad2/3-luciferase bioassay [4]: 5.8e-10 M
50 nM Ag Bound (RU) [5]: 40 RU
Kd [5]: 22.8 pM
koff [5]: 0.000103 s⁻¹
kon [5]: 4.53e+06 M⁻¹ s⁻¹
t1/2 [5]: 1.86 h
50 nM Ag Bound (RU) [6]: 50 RU
Kd [6]: 75.5 pM
koff [6]: 0.000488 s⁻¹
kon [6]: 6.47e+06 M⁻¹ s⁻¹
t1/2 [6]: 0.393 h
50 nM Ag Bound (RU) [7]: 28 RU
Kd [7]: 99.7 pM
koff [7]: 9.1e-05 s⁻¹
kon [7]: 913000 M⁻¹ s⁻¹
t1/2 [7]: 2.12 h
50 nM Ag Bound (RU) [8]: 35.7 RU
Kd [8]: 462 pM
koff [8]: 0.00062 s⁻¹
kon [8]: 1.34e+06 M⁻¹ s⁻¹
t1/2 [8]: 0.31 h
binding response (resonance units) for 200 nM ligand [9]: 56.8 RU
binding response (resonance units) for 200 nM ligand [10]: 51.5 RU
binding response (resonance units) for 200 nM ligand [11]: 76.5 RU
binding response (resonance units) for 200 nM ligand [12]: 43.1 RU
binding response (resonance units) for 200 nM ligand [13]: 3.6 RU
binding response (resonance units) for 200 nM ligand [14]: 1.1 RU
binding response (resonance units) for 200 nM ligand [15]: 4.6 RU
binding response (resonance units) for 200 nM ligand [16]: 33.4 RU
binding response (resonance units) for 200 nM ligand [17]: 32.4 RU
binding response (resonance units) for 200 nM ligand [18]: -0.4 RU
binding response (resonance units) for 200 nM ligand [19]: 1.6 RU
